Key:
Assay in all cases: SPR
RGN10987 (human) = biological target: RGN10987 (human)
CB6 (human) = biological target: CB6 (human)
RGN10933 (human) = biological target: RGN10933 (human)

Measured: binding relative to WT RBD

Sequence of RGN10933 (human) (heavy, as listed by the source, chain 1 of 2): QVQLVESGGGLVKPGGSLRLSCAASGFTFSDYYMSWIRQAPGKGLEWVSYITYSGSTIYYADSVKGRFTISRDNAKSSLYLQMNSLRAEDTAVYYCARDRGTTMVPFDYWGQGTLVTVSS
Sequence of RGN10933 (human) (light, as listed by the source, chain 2 of 2): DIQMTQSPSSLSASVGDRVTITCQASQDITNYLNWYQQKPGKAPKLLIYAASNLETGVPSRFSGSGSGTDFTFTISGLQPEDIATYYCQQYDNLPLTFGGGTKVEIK
Sequence of RGN10987 (human) (heavy, as listed by the source, chain 1 of 2): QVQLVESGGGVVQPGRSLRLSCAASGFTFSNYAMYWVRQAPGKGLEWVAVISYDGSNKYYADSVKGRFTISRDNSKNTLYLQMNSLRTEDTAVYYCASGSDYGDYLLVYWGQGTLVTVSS
Sequence of RGN10987 (human) (light, as listed by the source, chain 2 of 2): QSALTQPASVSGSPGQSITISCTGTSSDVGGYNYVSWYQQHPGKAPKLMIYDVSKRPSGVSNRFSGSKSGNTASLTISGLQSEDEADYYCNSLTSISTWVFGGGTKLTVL

RBD Y505W-FC fusion protein (from UniProt P0DTC2)
> 50%: all assays above

RBD T345I-FC fusion protein (from UniProt P0DTC2)
> 50%: all assays above

RBD A475V-FC fusion protein (from UniProt P0DTC2)
> 50%: all assays above

Reference: article PMC8212047
